± gives the standard deviation of the averaged measurements.
Assay: total protein half-life in vivo (active degradation + dilution); higher = more stable protein
[1] = wild type E. coli NCM3722, growth: C-lim chemostat, doubling time 3 h
[2] = wild type E. coli NCM3722, growth: C-lim chemostat, doubling time 12 h
[3] = E. coli NCM3722 delta-clpP delta-lon delta-hslV, growth: N-lim chemostat, doubling time 6 h
[4] = E. coli NCM3722 delta-clpP, growth: N-lim chemostat, doubling time 6 h
[5] = E. coli NCM3722 delta-hslV, growth: N-lim chemostat, doubling time 6 h
[6] = E. coli NCM3722 delta-lon, growth: N-lim chemostat, doubling time 6 h
[7] = E. coli NCM3722 delta-smpB, growth: N-lim chemostat, doubling time 6 h
[8] = wild type E. coli NCM3722, growth: C-lim chemostat, doubling time 6 h
[9] = wild type E. coli NCM3722, growth: N-lim chemostat, doubling time 6 h
[10] = wild type E. coli NCM3722, growth: N-lim chemostat, doubling time 12 h
[11] = wild type E. coli NCM3722, growth: P-lim chemostat, doubling time 6 h
[12] = wild type E. coli NCM3722, growth: P-lim chemostat, doubling time 12 h

Sequence	total protein half-life in vivo [1] [h]	total protein half-life in vivo [2] [h]	total protein half-life in vivo [3] [h]	total protein half-life in vivo [4] [h]	total protein half-life in vivo [5] [h]	total protein half-life in vivo [6] [h]	total protein half-life in vivo [7] [h]	total protein half-life in vivo [8] [h]	total protein half-life in vivo [9] [h]	total protein half-life in vivo [10] [h]	total protein half-life in vivo [11] [h]	total protein half-life in vivo [12] [h]
MTAKTAPKVTLWEFFQQLGKTFMLPVALLSFCGIMLGIGSSLSSHDVITLIPVLGNPVLQAIFTWMSKIGSFAFSFLPVMFCIAIPLGLARENKGVAAFAGFIGYAVMNLAVNFWLTNKGILPTTDAAVLKANNIQSILGIQSIDTGILGAVIAGIIVWMLHERFHNIRLPDALAFFGGTRFVPIISSLVMGLVGLVIPLVWPIFAMGISGLGHMINSAGDFGPMLFGTGERLLLPFGLHHILVALIRFTDAGGTQEVCGQTVSGALTIFQAQLSCPTTHGFSESATRFLSQGKMPAFLGGLPGAALAMYHCARPENRHKIKGLLISGLIACVVGGTTEPLEFLFLFVAPVLYVIHALLTGLGFTVMSVLGVTIGNTDGNIIDFVVFGILHGLSTKWYMVPVVAAIWFVVYYVIFRFAITRFNLKTPGRDSEVASSIEKAVAGAPGKSGYNVPAILEALGGADNIVSLDNCITRLRLSVKDMSLVNVQALKDNRAIGVVQLNQHNLQVVIGPQVQSVKDEMAGLMHTVQA	1.42 ± 0.085	2.5 ± 0.29	–	–	–	–	–	–	–	–	–	–
MTDIAQLLGKDADNLLQHRCMTIPSDQLYLPGHDYVDRVMIDNNRPPAVLRNMQTLYNTGRLAGTGYLSILPVDQGVEHSAGASFAANPLYFDPKNIVELAIEAGCNCVASTYGVLASVSRRYAHRIPFLVKLNHNETLSYPNTYDQTLYASVEQAFNMGAVAVGATIYFGSEESRRQIEEISAAFERAHELGMVTVLWAYLRNSAFKKDGVDYHVSADLTGQANHLAATIGADIVKQKMAENNGGYKAINYGYTDDRVYSKLTSENPIDLVRYQLANCYMGRAGLINSGGAAGGETDLSDAVRTAVINKRAGGMGLILGRKAFKKSMADGVKLINAVQDVYLDSKITIA [P0A991]	3.37 ± 0.44	12.9 ± 0.75	6.08 ± 0.41	5.88 ± 0.5	6.17 ± 0.49	5.99 ± 0.7	5.21 ± 0.23	6.705 ± 0.067	5.51 ± 0.26	10.1 ± 0.44	6.06 ± 0.11	13.3 ± 0.99
MTDKTIAFSLLDLAPIPEGSSAREAFSHSLDLARLAEKRGYHRYWLAEHHNMTGIASAATSVLIGYLAANTTTLHLGSGGVMLPNHSPLVIAEQFGTLNTLYPGRIDLGLGRAPGSDQRTMMALRRHMSGDIDNFPRDVAELVDWFDARDPNPHVRPVPGYGEKIPVWLLGSSLYSAQLAAQLGLPFAFASHFAPDMLFQALHLYRSNFKPSARLEKPYAMVCINIIAADSNRDAEFLFTSMQQAFVKLRRGETGQLPPPIQNMDQFWSPSEQYGVQQALSMSLVGDKAKVRHGLQSILRETDADEIMVNGQIFDHQARLHSFELAMDVKEELLG [P0ADV5]	3.07 ± 0.28	–	4.46 ± 0.36	4.24 ± 0.94	5.06 ± 1.8	3.94 ± 0.19	3.55 ± 0.21	–	4.47 ± 1.3	5.76 ± 1.3	6.06 ± 0.55	11.1 ± 0.18
MTDKTSLSYKDAGVDIDAGNALVGRIKGVVKKTRRPEVMGGLGGFGALCALPQKYREPVLVSGTDGVGTKLRLAMDLKRHDTIGIDLVAMCVNDLVVQGAEPLFFLDYYATGKLDVDTASAVISGIAEGCLQSGCSLVGGETAEMPGMYHGEDYDVAGFCVGVVEKSEIIDGSKVSDGDVLIALGSSGPHSNGYSLVRKILEVSGCDPQTTELDGKPLADHLLAPTRIYVKSVLELIEKVDVHAIAHLTGGGFWENIPRVLPDNTQAVIDESSWQWPEVFNWLQTAGNVEHHEMYRTFNCGVGMIIALPAPEVDKALALLNANGENAWKIGIIKASDSEQRVVIE	2.94 ± 0.24	11.1 ± 0.42	4.99 ± 0.091	4.62 ± 1	4.47 ± 0.064	5.23 ± 0.1	4.258 ± 0.021	5.66 ± 0.063	4.53 ± 0.17	7.47 ± 0.71	4.7 ± 0.29	9.07 ± 2
MTDLHTDVERYLRYLSVERQLSPITLLNYQRQLEAIINFASENGLQSWQQCDVTMVRNFAVRSRRKGLGAASLALRLSALRSFFDWLVSQNELKANPAKGVSAPKAPRHLPKNIDVDDMNRLLDIDINDPLAVRDRAMLEVMYGAGLRLSELVGLDIKHLDLESGEVWVMGKGSKERRLPIGRNAVAWIEHWLDLRDLFGSEDDALFLSKLGKRISARNVQKRFAEWGIKQGLNNHVHPHKLRHSFATHMLESSGDLRGVQELLGHANLSTTQIYTHLDFQHLASVYDAAHPRAKRGK [P0A8P6]	1.59 ± 0.34	–	4.56 ± 0.07	2.2684 ± 0.0015	1.38	2.36 ± 0.25	1.64 ± 0.28	2.67	1.81	2.08 ± 0.12	1.87 ± 0.3	3.1 ± 0.58
MTDLSHSREKDKINPVVFYTSAGLILLFSLTTILFRDFSALWIGRTLDWVSKTFGWYYLLAATLYIVFVVCIACSRFGSVKLGPEQSKPEFSLLSWAAMLFAAGIGIDLMFFSVAEPVTQYMQPPEGAGQTIEAARQAMVWTLFHYGLTGWSMYALMGMALGYFSYRYNLPLTIRSALYPIFGKRINGPIGHSVDIAAVIGTIFGIATTLGIGVVQLNYGLSVLFDIPDSMAAKAALIALSVIIATISVTSGVDKGIRVLSELNVALALGLILFVLFMGDTSFLLNALVLNVGDYVNRFMGMTLNSFAFDRPVEWMNNWTLFFWAWWVAWSPFVGLFLARISRGRTIRQFVLGTLIIPFTFTLLWLSVFGNSALYEIIHGGAAFAEEAMVHPERGFYSLLAQYPAFTFSASVATITGLLFYVTSADSGALVLGNFTSQLKDINSDAPGWLRVFWSVAIGLLTLGMLMTNGISALQNTTVIMGLPFSFVIFFVMAGLYKSLKVEDYRRESANRDTAPRPLGLQDRLSWKKRLSRLMNYPGTRYTKQMMETVCYPAMEEVAQELRLRGAYVELKSLPPEEGQQLGHLDLLVHMGEEQNFVYQIWPQQYSVPGFTYRARSGKSTYYRLETFLLEGSQGNDLMDYSKEQVITDILDQYERHLNFIHLHREAPGHSVMFPDA [P0ABC9]	–	11.6 ± 2	6.17 ± 0.24	7.418 ± 0.034	5.75 ± 1.3	> 8	5.11 ± 0.14	5.56	6.17	9.97	6.22 ± 1.3	13.1 ± 1.3
MTDQAEKKHSAFWGVMVIAGTVIGGGMFALPVDLAGAWFFWGAFILIIAWFSMLHSGLLLLEANLNYPVGSSFNTITKDLIGNTWNIISGITVAFVLYILTYAYISANGAIISETISMNLGYHANPRIVGICTAIFVASVLWLSSLAASRITSLFLGLKIISFVIVFGSFFFQVDYSILRDATSSTAGTSYFPYIFMALPVCLASFGFHGNIPSLIICYGKRKDKLIKSVVFGSLLALVIYLFWLYCTMGNIPRESFKAIISSGGNVDSLVKSFLGTKQHGIIEFCLLVFSNLAVASSFFGVTLGLFDYLADLFKIDNSHGGRFKTVLLTFLPPALLYLIFPNGFIYGIGGAGLCATIWAVIIPAVLAIKARKKFPNQMFTVWGGNLIPAIVILFGITVILCWFGNVFNVLPKFG	3.24 ± 0.27	11	–	–	–	–	–	5.07 ± 1.3	–	–	–	–

Reference: the supplement of paper PMC11246515
